Results: patent publication US12616737B2, “Liquid formulations of amylin analogues” (Zealand Pharma A/S, priority 2022, dated 2026)
Numbered stars: 1 amine (or outer) side, 2 acyl side, 3 side chain; on linkers, the order of the positions; unused ones are H or OH. Bridge positions count the residues as written; N and C are the ends. Square brackets hold non-standard residues; d marks the D form. * marks the point of attachment. C20 diacid = O=C(O)CCCCCCCCCCCCCCCCCCC(=O)*; γGlu = O=C(O)[C@H](CCC(=O)[*:2])N[*:1]; Hyp = O=C(O)[C@@H]1C[C@@H](O)CN1; NMeI = CC[C@H](C)[C@H](NC)C(=O)O; Aad = N[C@@H](CCCC(=O)O)C(=O)O; Sar = CNCC(=O)O

Legend:
[1] = Physical stability evaluation by ThT-stress test (ASSAY IIId), lag-time of fibril formation; format: physicochemical; conditions: for ThT lag time: 1 mg/ml CPD 1, 20 mM TRIS, 118 mM NaCl
Protocol: Physical Stability Evaluation by ThT-Stress Test (ASSAY IIId)
A 1 mM ThT stock solution was prepared and 12 μL was mixed with 288 μL of CPD 1 formulation. Samples were loaded in a 96-well black fluorescence plate (clear bottom) in duplicate 2×150 μL. Data were collected in a Fluorescence Plate reader from Biotek Synergy™ H4 Hybrid Multi-Mode at fixed intervals of 10 min, each preceded by 300 s of auto mixing (agitation), over a period of up to 60 hours at 40° C. Physical stability, expressed as lag-time of fibril formation (in hours), was defined as the intersection between two linear regressions representing the initial stable phase and the growth phase.
Physical stability was evaluated in terms of fibril formation by ThT-stress test measured over 60 hours at 40° C. Initial peptide particle size (z-average) was also determined by DLS.

[2] = Dynamic light scattering (DLS) (ASSAY IIIc), peptide particle size; format: physicochemical; conditions: initial z-average by DLS, 1 mg/ml CPD 1, 20 mM TRIS, 118 mM NaCl
Protocol: Dynamic Light Scattering (DLS) (ASSAY IIIc)
Peptide particle size distribution was determined with dynamic light scattering analysis. The standard DLS experiment is conducted in a nunc 96 well plate with a sample volume of 165 μL and measured in a DynaPro Plate reader II instrument. Typically used parameters were temperature at 25° C., acquisition time 2 s, 50 acquisitions per sample, Detection: Hydrodynamic radius Rh, Correlation function cut off [μs]: […] and Peak radius cut off [nm]: 0.5-1000.

[3] = Solubility test: CPD 1 dissolved in alkaline MQW by stirring, visual control; format: physicochemical; conditions: in MQW (alkaline, NaOH)
Protocol: To test solubility, CPD 1 was dissolved in alkaline MQW (pH adjusted with NaOH) by stirring.

pI of the peptide = format: physicochemical
hAMYR1 = hAMYR1 (Homo sapiens, UniProt P30988); conditions: as described in WO 2018/046719; cited from earlier work
Chain of hAMYR1 (O60894 27-148 partner, one chain of several): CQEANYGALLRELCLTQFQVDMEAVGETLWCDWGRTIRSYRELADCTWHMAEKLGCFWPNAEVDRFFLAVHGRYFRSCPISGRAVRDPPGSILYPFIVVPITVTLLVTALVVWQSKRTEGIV

hAMYR2 = hAMYR2 (Homo sapiens, UniProt P30988); conditions: as described in WO 2018/046719; cited from earlier work
Chain of hAMYR2 (O60895 43-175 partner, one chain of several): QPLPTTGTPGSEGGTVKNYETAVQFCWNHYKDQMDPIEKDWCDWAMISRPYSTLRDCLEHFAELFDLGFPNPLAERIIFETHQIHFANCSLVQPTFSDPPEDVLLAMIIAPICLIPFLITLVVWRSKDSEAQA

hAMYR3 = molecular target: T1, hAMYR3 (Homo sapiens, UniProt P30988); conditions: as described in WO 2018/046719; cited from earlier work
T1 sequence (P30988 25-474): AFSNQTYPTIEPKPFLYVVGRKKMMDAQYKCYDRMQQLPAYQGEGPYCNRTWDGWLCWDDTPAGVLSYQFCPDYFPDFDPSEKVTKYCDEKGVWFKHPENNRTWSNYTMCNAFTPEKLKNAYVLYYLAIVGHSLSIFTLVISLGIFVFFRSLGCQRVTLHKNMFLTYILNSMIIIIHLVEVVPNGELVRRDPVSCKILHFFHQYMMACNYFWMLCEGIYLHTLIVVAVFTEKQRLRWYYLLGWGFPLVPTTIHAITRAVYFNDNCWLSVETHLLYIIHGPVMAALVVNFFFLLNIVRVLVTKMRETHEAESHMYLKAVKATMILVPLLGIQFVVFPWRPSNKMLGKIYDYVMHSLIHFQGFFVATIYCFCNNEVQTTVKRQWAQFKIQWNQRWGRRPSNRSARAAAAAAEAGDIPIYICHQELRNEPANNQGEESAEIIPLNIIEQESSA
T1 sequence (O60896 24-148 partner): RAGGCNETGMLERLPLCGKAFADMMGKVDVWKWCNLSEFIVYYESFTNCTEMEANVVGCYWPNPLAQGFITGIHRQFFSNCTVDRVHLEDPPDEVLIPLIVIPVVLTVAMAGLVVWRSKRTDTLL

[4] = human trials; cited from earlier work

[19CD]-isoGlu-RD( )GTATK( )ATERLA-Aad-FLQRSSF-Gly(Me)-A-Ile(Me)-LSSTEVGSNT-Hyp-NH2 ({C20 diacid}-[γGlu]RDGTATKATERLA[Aad]FLQRSSF[Sar]A[NMeI]LSSTEVGSNT[Hyp]-NH2; lactam 3-8) [CPD 1]
ThT lag time ([1]; pH 5.8, ThT-stress test over 60 hours at 40° C.): >60 h
ThT lag time ([1]; pH 6.0, over 60 hours at 40° C.): >60 h
ThT lag time ([1]; pH 6.3, over 60 hours at 40° C.): >60 h
ThT lag time ([1]; pH 6.6, over 60 hours at 40° C.): >60 h
ThT lag time ([1]; pH 6.8, over 60 hours at 40° C.): >60 h
ThT lag time ([1]; pH 7.0, over 60 hours at 40° C.): >60 h
stability towards fibrillation and aggregation ([1]; pH range 5.8-7.0, ThT-stress test and DLS (Table 3)): stable towards fibrillation and aggregation impacting peptide particle size
Peptide particle size (nm) ([2]; pH 5.8): 3.3 nm
Peptide particle size (nm) ([2]; pH 6.0): 4.0 nm
Peptide particle size (nm) ([2]; pH 6.3): 3.2 nm
Peptide particle size (nm) ([2]; pH 6.6): 3.0 nm
Peptide particle size (nm) ([2]; pH 6.8): 3.7 nm
Peptide particle size (nm) ([2]; pH 7.0): 3.0 nm
Concentration at which CPD 1 could be dissolved to a clear solution [3]: up to 50 mg/ml
pI of the peptide (pI of the peptide): 4.36
agonist activity at hAMYR1 (hAMYR1): agonist activity
agonist activity at hAMYR2 (hAMYR2): agonist activity
agonist activity at hAMYR3 (hAMYR3): agonist activity

CC[C@H](C)[C@H](NC(=O)[C@@H]1CCCN1C(=O)CNC(=O)[C@H](Cc1ccccc1)NC(=O)[C@H](CC(N)=O)NC(=O)[C@H](CC(N)=O)NC(=O)[C@H](CO)NC(=O)[C@H](CO)NC(=O)[C@H](Cc1c[nH]cn1)NC(=O)[C@@H](NC(=O)[C@H](CC(C)C)NC(=O)[C@H](Cc1ccccc1)NC(=O)[C@H](CC(N)=O)NC(=O)[C@H](C)NC(=O)[C@H](CC(C)C)NC(=O)[C@H](CCCNC(=N)N)NC(=O)[C@H](CCC(N)=O)NC(=O)[C@@H](NC(=O)[C@H](C)NC(=O)[C@@H]1CSSC[C@H](NC(=O)[C@@H](N)CCCCN)C(=O)N[C@@H](CC(N)=O)C(=O)N[C@@H]([C@@H](C)O)C(=O)N[C@@H](C)C(=O)N[C@@H]([C@@H](C)O)C(=O)N1)[C@@H](C)O)C(C)C)C(=O)N[C@@H](CC(C)C)C(=O)N1CCC[C@H]1C(=O)N1CCC[C@H]1C(=O)N[C@H](C(=O)N[C@@H](CC(N)=O)C(=O)N[C@H](C(=O)NCC(=O)N[C@@H](CO)C(=O)N[C@@H](CC(N)=O)C(=O)N[C@H](C(=O)N[C@@H](Cc1ccc(O)cc1)C(N)=O)[C@@H](C)O)C(C)C)[C@@H](C)O [pramlintide]
effect on body weight [4]: reduce body weight or reduce weight gain
